Measured values from patent publication US20240124576A1 (SHANGHAI JEMINCARE PHARMACEUTICAL, published 2024).

T1: biotinylated human Siglec-15 protein (Acrobiosystems, Cat. No. SG5-H82E9) (human, UniProt Q6ZMC9 20-263, biotinylated)
T1 construct: Bought reagent; also called HS-15 Biotin; human S-15 Biotin
T1 sequence (looked up): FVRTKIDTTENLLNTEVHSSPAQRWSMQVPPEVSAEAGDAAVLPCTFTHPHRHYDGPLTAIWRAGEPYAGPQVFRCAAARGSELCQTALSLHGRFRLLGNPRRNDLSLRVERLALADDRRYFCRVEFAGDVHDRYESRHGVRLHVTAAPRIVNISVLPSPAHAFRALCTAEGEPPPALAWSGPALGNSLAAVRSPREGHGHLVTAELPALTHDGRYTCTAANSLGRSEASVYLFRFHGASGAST

T2: human Siglec-15 (Acro, Cat. No. SG5-H52H3) (human, UniProt Q6ZMC9 20-263)
T2 construct: Bought reagent used as the analyte in the Octet assay; also called antigen
T2 sequence (looked up): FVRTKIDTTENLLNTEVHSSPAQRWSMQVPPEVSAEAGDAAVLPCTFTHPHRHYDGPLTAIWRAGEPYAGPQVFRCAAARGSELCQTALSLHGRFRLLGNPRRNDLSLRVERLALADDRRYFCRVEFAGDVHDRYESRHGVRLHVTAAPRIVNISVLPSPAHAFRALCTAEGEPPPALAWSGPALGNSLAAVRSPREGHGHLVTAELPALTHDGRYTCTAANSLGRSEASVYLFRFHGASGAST


These binders were tested against T1, biotinylated human Siglec-15 protein … (assay: flow cytometry of yeast-displayed Fab, 1 nM HS-15 Biotin 30 min, 2 h wash).
Procedure: After sequencing analysis, the single clone with single sequence was identified by flow cytometry staining, incubated with 1 nM HS-15 Biotin for 30 min, respectively, and washed with 1 mL 1×PBSA for 2 h at room temperature; after flow cytometry analysis, the fluorescence intensity of different clones binding to antigen was compared.

| Binder | Binding MFI | Binding force (Displaying MFI/Binding MFI) *10000 |
| --- | --- | --- |
| Ab0 parent sequence displayed on yeast in the form of Fab (Fab, V domains shown) VH: EVQLLESGGGLVQPGGSLRLSCAASGFTFSSYAMSWVRQAPGKGLEWVSTISGGGGSTYYADSVKGRFTISRDNSKNTLYLQMNSLRAEDTAVYYCAKAIGSSWYSDAFDLWGQGTMVTVSS VL: DIQMTQSPSSVSASVGDRVTITCRASQDISSWLAWYQQKPGKAPKLLIYVASSLQSGVPSRFSGSGSGTDFTLTISSLQPEDFATYYCQQSYSIPYTFGQGTKLEIK | 52.2 MFI | 219 |
| Ab7 (clone YC33D5) displayed on yeast in the form of Fab (Fab, V domains shown) VH: EVQLLESGGGLVQPGGSLRLSCAASGFTFSSYAMSWVRQAPGKGLEWVSTISGGGVYTYYADSVKGRFTISRDNSKNTLYLQMNSLRAEDTAVYYCAKAIGSSWYSDAFDLWGQGTMVTVSS VL: DIQMTQSPSSVSASVGDRVTITCRASQDISSWLAWYQQKPGKAPKLLIYVASSLQSGVPSRFSGSGSGTDFTLTISSLQPEDFATYYCQQSYSIPYTFGQGTKLEIK | 113 MFI | 455 |
| Ab3 (clone YC33B2) displayed on yeast in the form of Fab (Fab, V domains shown) VH: EVQLLESGGGLVQPGGSLRLSCAASGFTFSSYAMSWVRQAPGKGLEWVSTITGGGESTYYADSVKGRFTISRDNSKNTLYLQMNSLRAEDTAVYYCAKAIGSSWYSDAFDLWGQGTMVTVSS VL: DIQMTQSPSSVSASVGDRVTITCRASQDISSWLAWYQQKPGKAPKLLIYVASSLQSGVPSRFSGSGSGTDFTLTISSLQPEDFATYYCQQSYSIPYTFGQGTKLEIK | 188 MFI | 658 |
| Ab9 (clone YC29B3) displayed on yeast in the form of Fab (Fab, V domains shown) VH: EVQLLESGGGLVQPGGSLRLSCAASGFTFSSYAMSWVRQAPGKGLEWVSTISGGGGSTYYADSVKGRFTISRDNSKNTLYLQMNSLRAEDTAVYYCAKAIGSSWYSDAFDLWGQGTMVTVSS VL: DIQMTQSPSSVSASVGDRVTITCRASQDISDWLAWYQQKPGKAPKLLIYVASSLQSGVPSRFSGSGSGTDFTLTISSLQPEDFATYYCQQSYSIPYTFGQGTKLEIK | 131 MFI | 289 |
| Ab15 (clone YC44F5) displayed on yeast in the form of Fab (Fab, V domains shown) VH: EVQLLESGGGLVQPGGSLRLSCAASGFTFSSYAMSWVRQAPGKGLEWVSTITGGGESTYYADSVKGRFTISRDNSKNTLYLQMNSLRAEDTAVYYCAKAIGSSWYSDAFDLWGQGTMVTVSS VL: DIQMTQSPSSVSASVGDRVTITCRASQDISSWLAWYQQKPGKAPKLLIYVASYIHSGVPSRFSGSGSGTDFTLTISSLQPEDFATYYCQQSYSIPYTFGQGTKLEIK | 105 MFI | 409 |
| Ab2 (clone YC32A6) displayed on yeast in the form of Fab (Fab, V domains shown) VH: EVQLLESGGGLVQPGGSLRLSCAASGFTSSSYAMSWVRQAPGKGLEWVSTISGGGGSTYYADSVKGRFTISRDNSKNTLYLQMNSLRAEDTAVYYCAKAIGSSWYSDAFDLWGQGTMVTVSS VL: DIQMTQSPSSVSASVGDRVTITCRASQDISSWLAWYQQKPGKAPKLLIYVASSLQSGVPSRFSGSGSGTDFTLTISSLQPEDFATYYCQQSYSIPYTFGQGTKLEIK | 133 MFI | 441 |
| Ab6 (clone YC33G4) displayed on yeast in the form of Fab (Fab, V domains shown) VH: EVQLLESGGGLVQPGGSLRLSCAASGFTFSSYAMSWVRQAPGKGLEWVSTIWGGGGSTYYADSVKGRFTISRDNSKNTLYLQMNSLRAEDTAVYYCAKAIGSSWYSDAFDLWGQGTMVTVSS VL: DIQMTQSPSSVSASVGDRVTITCRASQDISSWLAWYQQKPGKAPKLLIYVASSLQSGVPSRFSGSGSGTDFTLTISSLQPEDFATYYCQQSYSIPYTFGQGTKLEIK | 94.2 MFI | 411 |

Second part, the binder after the results:

| Binding MFI | Binding force (Displaying MFI/Binding MFI) *10000 | Binder |
| --- | --- | --- |
| 135 MFI | 480 | Ab5 (clone YC33D1) displayed on yeast in the form of Fab (Fab, V domains shown) VH: EVQLLESGGGLVQPGGSLRLSCAASGFTFSSYAMSWVRQAPGKGLEWVSTIYGGGGSTYYADSVKGRFTISRDNSKNTLYLQMNSLRAEDTAVYYCAKAIGSSWYSDAFDLWGQGTMVTVSS VL: DIQMTQSPSSVSASVGDRVTITCRASQDISSWLAWYQQKPGKAPKLLIYVASSLQSGVPSRFSGSGSGTDFTLTISSLQPEDFATYYCQQSYSIPYTFGQGTKLEIK |
| 109 MFI | 465 | Ab13 (clone YC45H4) displayed on yeast in the form of Fab (Fab, V domains shown) VH: EVQLLESGGGLVQPGGSLRLSCAASGFTFSSYAMSWVRQAPGKGLEWVSTITGGGESTYYADSVKGRFTISRDNSKNTLYLQMNSLRAEDTAVYYCAKAIGSSWYSDAFDLWGQGTMVTVSS VL: DIQMTQSPSSVSASVGDRVTITCRASQDISSWLAWYQQKPGKAPKLLIYVASFEHRGVPSRFSGSGSGTDFTLTISSLQPEDFATYYCQQSYSIPYTFGQGTKLEIK |

What follows are binders tested against T2, human Siglec-15 (Acro, Cat. No. …) (assay: BLI (Octet RED96e), antibody captured on AHC sensor, 30 nM antigen, 1:1 fit; second assay).
Design: Response value: unit not given here
Procedure: Affinity of Siglec-15 binding protein of the present application to human Siglec-15 (Acro, Cat. No.: SG5-H52H3) was determined using Octet RED96e (Fortebio), both of the antigen and the Siglec-15 binding protein of the present application were diluted with 1×PBST (1×PBS: Sangon, B548117-0500; 0.02% Tween 20: Sigma-aldrich, P1379). The antigen is used at a concentration of 30 nM and the Siglec-15 binding protein of the present application is used at a concentration of 33.3 nM.
First, a sample was added to a 96-well plate (Greiner bio-one, 655209) in a system of 200 μL/well. Software parameters were then set, the plate temperature was set to 30° C., and the frequency at which the standard kinetic signal was collected was 5.0 Hz. Next, the AHC sensor (Fortébio, Cat. No.: 18-0015) was pre-wetted with 1×PBST for 10 min, then the sample was loaded on the machine for detection, with each cycle containing the following steps: 1) immersing the sample in buffer for 60 s; 2) detecting whether the antigen has non-specific binding to the sensor; 3) regenerating in a 10 mM glycine solution at pH 1.7; 4) immersing in buffer for 60 s; 5) immobilizing the Siglec-15 binding protein of the present application on the sensor for 20 s; 6) immersing the sensor in buffer for 180 s; 7) binding the antigen to the Siglec-15 binding protein of the present application for 180 s; 8) dissociating the antigen with Siglec-15 binding protein of the present application for 10 min; and 9) regenerating the sensor.
The equilibrium dissociation constant (KD) of the Siglec-15 binding protein of the present application was calculated by determining the binding rate constant (kon) and dissociation rate constant (kdis) of the antigen-Siglec-15 binding protein of the present application in a 1:1 binding manner using Data Analysis 12.0 software fromx Fortebio.

| Binder | Kd | Response value | koff | kon |
| --- | --- | --- | --- | --- |
| Ab2, purified Siglec-15 binding protein in the form of IgG1 (antibody, V domains shown, Expressed in ExpiCHO cells in the form of IgG1) VH: EVQLLESGGGLVQPGGSLRLSCAASGFTSSSYAMSWVRQAPGKGLEWVSTISGGGGSTYYADSVKGRFTISRDNSKNTLYLQMNSLRAEDTAVYYCAKAIGSSWYSDAFDLWGQGTMVTVSS VL: DIQMTQSPSSVSASVGDRVTITCRASQDISSWLAWYQQKPGKAPKLLIYVASSLQSGVPSRFSGSGSGTDFTLTISSLQPEDFATYYCQQSYSIPYTFGQGTKLEIKR | 155 pM | 0.262 | 6.96e-05 s⁻¹ | 448000 M⁻¹ s⁻¹ |
| Ab5, purified Siglec-15 binding protein in the form of IgG1 (antibody, V domains shown, Expressed in ExpiCHO cells in the form of IgG1) VH: EVQLLESGGGLVQPGGSLRLSCAASGFTFSSYAMSWVRQAPGKGLEWVSTIYGGGGSTYYADSVKGRFTISRDNSKNTLYLQMNSLRAEDTAVYYCAKAIGSSWYSDAFDLWGQGTMVTVSS VL: DIQMTQSPSSVSASVGDRVTITCRASQDISSWLAWYQQKPGKAPKLLIYVASSLQSGVPSRFSGSGSGTDFTLTISSLQPEDFATYYCQQSYSIPYTFGQGTKLEIKR | 7.6 pM | 0.277 | 2.57e-06 s⁻¹ | 338000 M⁻¹ s⁻¹ |

Next, values leading:

| Kd | Response value | koff | kon | Binder |
| --- | --- | --- | --- | --- |
| 8.43 pM | 0.285 | 2.87e-06 s⁻¹ | 340000 M⁻¹ s⁻¹ | Ab6, purified Siglec-15 binding protein in the form of IgG1 (antibody, V domains shown, Expressed in ExpiCHO cells in the form of IgG1) VH: EVQLLESGGGLVQPGGSLRLSCAASGFTFSSYAMSWVRQAPGKGLEWVSTIWGGGGSTYYADSVKGRFTISRDNSKNTLYLQMNSLRAEDTAVYYCAKAIGSSWYSDAFDLWGQGTMVTVSS VL: DIQMTQSPSSVSASVGDRVTITCRASQDISSWLAWYQQKPGKAPKLLIYVASSLQSGVPSRFSGSGSGTDFTLTISSLQPEDFATYYCQQSYSIPYTFGQGTKLEIKR |
| 5.08 pM | 0.284 | 1.44e-06 s⁻¹ | 282000 M⁻¹ s⁻¹ | Ab7, purified Siglec-15 binding protein in the form of IgG1 (antibody, V domains shown, Expressed in ExpiCHO cells in the form of IgG1) VH: EVQLLESGGGLVQPGGSLRLSCAASGFTFSSYAMSWVRQAPGKGLEWVSTISGGGVYTYYADSVKGRFTISRDNSKNTLYLQMNSLRAEDTAVYYCAKAIGSSWYSDAFDLWGQGTMVTVSS VL: DIQMTQSPSSVSASVGDRVTITCRASQDISSWLAWYQQKPGKAPKLLIYVASSLQSGVPSRFSGSGSGTDFTLTISSLQPEDFATYYCQQSYSIPYTFGQGTKLEIKR |
| 68.1 pM | 0.305 | 3.79e-05 s⁻¹ | 556000 M⁻¹ s⁻¹ | Ab13, purified Siglec-15 binding protein in the form of IgG1 (antibody, V domains shown, Expressed in ExpiCHO cells in the form of IgG1) VH: EVQLLESGGGLVQPGGSLRLSCAASGFTFSSYAMSWVRQAPGKGLEWVSTITGGGESTYYADSVKGRFTISRDNSKNTLYLQMNSLRAEDTAVYYCAKAIGSSWYSDAFDLWGQGTMVTVSS VL: DIQMTQSPSSVSASVGDRVTITCRASQDISSWLAWYQQKPGKAPKLLIYVASFEHRGVPSRFSGSGSGTDFTLTISSLQPEDFATYYCQQSYSIPYTFGQGTKLEIKR |
| 44.4 pM | 0.288 | 1.95e-05 s⁻¹ | 440000 M⁻¹ s⁻¹ | Ab3, purified Siglec-15 binding protein in the form of IgG1 (antibody, V domains shown, Expressed in ExpiCHO cells in the form of IgG1) VH: EVQLLESGGGLVQPGGSLRLSCAASGFTFSSYAMSWVRQAPGKGLEWVSTITGGGESTYYADSVKGRFTISRDNSKNTLYLQMNSLRAEDTAVYYCAKAIGSSWYSDAFDLWGQGTMVTVSS VL: DIQMTQSPSSVSASVGDRVTITCRASQDISSWLAWYQQKPGKAPKLLIYVASSLQSGVPSRFSGSGSGTDFTLTISSLQPEDFATYYCQQSYSIPYTFGQGTKLEIKR |
